Experimental data: the nanobody polyreactivity screen of Harvey et al. (2022)

Assay: yeast display, Sf9 membrane polyspecificity reagent, FACS + sequencing; frameworks hold sequencing errors
Summary of the method: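 Galactose-induced (36–48 hours) yeast carrying a synthetic nanobody display library were exposed to 10% biotinylated, detergent-solubilized Sf9 membrane reagent at 4 °C for 1 hour. FACS followed streptavidin microbead enrichment, using low and high (top ~1%) gates for expression (anti-HA) and reagent binding (streptavidin). Colony PCR, MiSeq 2 × 250 sequencing and CDR-length filtering followed. Labels for polyreactivity reflect the gate of origin.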

Row | Sequence | polyreactivity (PSR sort gate)
1 | QVHLVESGGGLVQAGCSLRLICAASRYIFGYYAMGWYRQAPGKERELVAAISTDGSTDYADSVKVRFTISRYNANNTVDLQMNRLKPEDSALYYCAKELFIVTNGVYIYDSWGEGTQVTVSS | low polyreactivity
2 | QVHLVESGGGLVQAGGILLLSCAASGYDMGWYRQAPGKERELVAAISRGGSTSYADSVKGRFTISRDNAKNTVYLQMNSLKPEDTAVYYCAARYGSYRVGYDYWGQGTQVTVSS | low polyreactivity
3 | QVHLVESGGGLVQAGGILRLSCAASGFIYTKYTMGSYRQAPGKEREMVAAITGRGTSTYADSVKGRFTISRDNAKNSVYLQMNRLKPEDTAVYYCASVGWFADFMFSDINGYYWGQGTEVTVSS | low polyreactivity
4 | QVHLVESGGGLVQAGGILRLSCAASGRTFRRYAMGWYRQAPGKERELVAVISGGGTYYADSVKGRFTISRDNAKNTVYLQMNSLKPEDTAVYYCNARSYQSARVRGGYWGQGTQVTVSS | high polyreactivity
5 | QVHLVESGGGLVQAGGILRLSSPASGSISGWYAMGWSRQEPGKERELVSDMTRGGRTYYADSVKGRFTISRDNAKNTVYLQMNSLKPEDTAVYYCASPSPSYYYRSGWGSYYSWGLGTQVTVSS | high polyreactivity
6 | QVHLVESGGGLVQAGGILRLSWASSGFIFPRYAMGSYRQAPGKERELVAGITSRGTGTYYADSVKGRFTISRDNAKNTVYLQMNSLKQEDTAVYYCARLSTKPLPYDDWGQGTQVTVSS | high polyreactivity
7 | QVHLVESGGGLVQAGGILRVSCAASGRIFRTYVMGWYRQAPGKERELVAAITQRGGTTYYADSVKRRFTISRDNAKNTVYLQMNSLKPEDTAVYYCATRYRYYTERDYWGLGTQVTVSS | high polyreactivity
8 | QVHLVESGGGLVQAGGNLRLICAASGSIFSDYTIGWYRQAPGKERELVAVITLSSGSTYFADSVKGRFTISRDNAKNTDYLQMNSLKPEDTAVYYCAADGWYYFGSGVFEYDYWRQGTQVTVSS | low polyreactivity
9 | QVHLVESGGGLVQAGGRLRLSCAASGSIFGYNAMGWYRQAPGKERELVAAISSTGGSTYYADSVKGRFTISRDNAKNTVYLQMNSLYPEDTAVYYCAKRGQSYFKGYDYWGQGTQVTVSS | low polyreactivity
10 | QVHLVESGGGLVQAGGSHRITCAASGITFVGNARGWYRQAPGKERELVAAIRWSSGRTYYADSVKGRFTISRDNAKNTVYLQMNSLKPEDTAVYYCATDYHYSQYYRFYYWGQGTQVTVSS | high polyreactivity
11 | QVHLVESGGGLVQAGGSLLLSCAASGGTFAAYAMGWYRQAPGKERELVAAIDSGGTTKYADSVKGRFTISRDNAKNTVYLQMSCLKPEDTAVYYCAAVYRITFGYHTSRAFDYWGQGTQVTVSS | low polyreactivity
12 | QVHLVESGGGLVQAGGSLRISCAASGNIFPNNGMGWNRQAPGKERELVAAISFNGDDTYADSVKGRFTISRDNAKNTVYLKMNSLNPEDTAVYYCNAVPGADQFSAPVITTAEDYWGQGTQVTVSS | low polyreactivity
13 | QVHLVESGGGLVQAGGSLRISCAASGRTFYIYAMGWYRQAPGKERELVAAISWGSGSTYYADSVKGRFTISRDNAKNTVYLQMNSLKPEDTAVYYCAADYAYPSEWTYDYWGQGTQVTVSS | low polyreactivity
14 | QVHLVESGGGLVQAGGSLRLNCAASGRTFTEYAMGWYTPAPGKERELVAAITTVGSTYYADSVKGRFTISRDNAKNTVDIQMNSQKPEDTAVYYCDVERDYWTKASYYWGQGTQVTVSS | low polyreactivity
15 | QVHLVESGGGLVQAGGSLRLRCAASGFILGAYAMGWYRQAPGKERELDAAISYSGGRTYYADSVKGRFTISRDNAKNTVYLQMNSQNPEDTAVYYCAADWYYGYFFSVAGEHEYCGQGTQVTVSS | high polyreactivity
16 | QVHLVESGGGLVQAGGSLRLSCAASASIFRYYAMGRYRQAPGKERELVATISSGGRTYYADSVKGRFTISRDNAKNTVYLQMNSLKPEDPAVYYCAAVRLTWTAKYNYWGQGTQVTVSS | high polyreactivity
17 | QVHLVESGGGLVQAGGSLRLSCAASGFIFIRYAMGWYRQAPGKERELVAAINGGGSSTYYADSVKGRFTISRDNAKYTVYLQMNSLKPEDTAVDYCDADTDSWWYYLYYGDGFDYWGQGTQVTVSS | high polyreactivity
18 | QVHLVESGGGLVQAGGSLRLSCAASGFIFISNSMGCYRQEPGKERELVARISDTDRTHYADSVKGRFTISRDNAKNTVYLQMNSQNPEDTAVYSCATDQSLLDKVYYDVQYDFWGQGTQVTVSS | low polyreactivity
19 | QVHLVESGGGLVQAGGSLRLSCAASGFIFSYYAMGWYRQAPGKERELVAAISWTGGSTYYADSVKGRFTISRDNAKNTVYLQMNSLKPEDTAVYYCNKYYRAWLLWDYGYWGQGTQVTVSS | high polyreactivity
20 | QVHLVESGGGLVQAGGSLRLSCAASGFIFVRNAMGWYSQAPGKEREFVAAITRSGGSTYYADSVKVRFTISRDNAKNTVYLQMYSLKPEDTAVYYCAVLYHSRDSYTYRDEDYWGQGTQVTVSS | low polyreactivity

Row | Sequence | polyreactivity (PSR sort gate)
21 | QVHLVESGGGLVQAGGSLRLSCAASGFIFYPYAMGWYRQAPGKERELVAAITSSGGSTYYADSVKGRFTISRDNAKNTVYLQMNSLKPEDTAVYYCAAYTSYYGTIIAYRYYYWGQGTQVTVSS | high polyreactivity
22 | QVHLVESGGGLVQAGGSLRLSCAASGFNFLIYAMGWYRQAPGKERELVAAITLRGSGTYYADSVKGRFTISRDNAKNTVYLQMNSLKPEDTAVYDCAAGTARRTYDYWGQGTQVTVSS | low polyreactivity
23 | QVHLVESGGGLVQAGGSLRLSCAASGFTFDFYAMGWYRQAPGKERELVAAISKNDGTTYYADSVKGRFTISRDNAKNTVYLQLNSLKPEDTAVYYCAAESGYPVYTYVSSGDYWGQGTQVTVSS | low polyreactivity
24 | QVHLVESGGGLVQAGGSLRLSCAASGFTFPHYAMGWYRQAPGKERELVAAISFSGGRTYYADSVKGRFTISRDHSKNTVYVQMNSLKPEDTAVYYCNVPYYSFRELSYYYWGQGTQVTVSS | high polyreactivity
25 | QVHLVESGGGLVQAGGSLRLSCAASGFTFSFYAMGWYRQAPWKEIEFVAAITNSGGSTYYADSVKGRFTISRDNSKNSVYLQMNSLKPEDTAVYYCATKRAWPGYFTYYYWGQGTQVTVSS | high polyreactivity
26 | QVHLVESGGGLVQAGGSLRLSCAASGFTFVQYAMGWYRQAPGKERELVATISKSGGITYYADSVKGRFTISRDNAKNTVYLQMNSLKPEDTSVYYCAAAWYYSSRGFHATWGHDYWGQGTQVTVSS | low polyreactivity
27 | QVHLVESGGGLVQAGGSLRLSCAASGFTFVRYAMGWYRQAPGKERELVASISYSGGSTYYADSVKGRFTISRDNAKNTVYVQMNSLKPEATAVYYCAAVIYRGYYYWGQGTQVTVSS | high polyreactivity
28 | QVHLVESGGGLVQAGGSLRLSCAASGFTFYQYAMGWYRQAPGKERELVAAITASGGSTYYADSVKRRFTISRDNAKNTVYLQMNSLKPEDTAVYYCAAERYFVLYRYYSYAYYYWGQGTQVTVSS | high polyreactivity
29 | QVHLVESGGGLVQAGGSLRLSCAASGFTFYRYAMGWYRQAPGKDRELVAAITWSGGSTYYADSVKGRFTISRDNAKNTVYLQMNSLKPEDTAVYYCAADIYDGGFDYWGQGTQVTVSS | low polyreactivity
30 | QVHLVESGGGLVQAGGSLRLSCAASGFTFYYYAMGWYRQAPGKERELVATISRSVGSTYYADSVKGRFTISRDNAKNTVYLQMNSLKPEDTAVYYCAVGGYLRSVSYIRLGNYYWGQGTQVSVSS | high polyreactivity
31 | QVHLVESGGGLVQAGGSLRLSCAASGGNFRPNAMGWYRQAPGKERELVASITRGGSTNYADSVKGRFTISRDNAKNTVYLQMNSLKPEDTAVYYCSALLRYTRTLYYSWGQGTQVTVSS | high polyreactivity
32 | QVHLVESGGGLVQAGGSLRLSCAASGGTFRVYAMGWYRQAPGKEWELVASISNGGSTNYADSEKGRFTISRDNAKNTVYLQMNSLKPEDTAVYYCAADPSYEVWYYDSPEYNYWGQGTQVTVSS | low polyreactivity
33 | QVHLVESGGGLVQAGGSLRLSCAASGGTFYYNTMGWSRQAPGKERELVAAITSGTSTNYADSVKGRFTISRDNAKNTVYLQMNSRIQEDTAVFDCAADPDADDPRRGYDYWGQGTQVTVSS | low polyreactivity
34 | QVHLVESGGGLVQAGGSLRLSCAASGIIFPWTAMGWYRQAPGKERELVAAITSRGSNTYYADSVKGRFTISRDNAKNTVYLQMNSLKPEDTAVYYCAVDSFYYGKYGYWGQGSQVTVSS | high polyreactivity
35 | QVHLVESGGGLVQAGGSLRLSCAASGIIFYYNAMGWYRQAPGKERELVAVISSAGNTNYADSVKGRFTISRDNAKNTVYLQMNCLKPEDTAVYYCAAGTISRIDERNYFKMDYWGQGTQVTVSS | low polyreactivity
36 | QVHLVESGGGLVQAGGSLRLSCAASGITFDEYTMGWYRQAPGKERELVAAIDSDGSTTYADSVKGRFTISRDNAKNTVYLQMNSLKPEDSAVYYCNAEHGDFSWHYLLYDYDYWGPGTQVTVSS | low polyreactivity
37 | QVHLVESGGGLVQAGGSLRLSCAASGITFFWYTMGWYRQAPGKDRELVAAISESGGDTYYADSVKGRFTISRDNAKNTVYLQMKILKPEDTAVYYCAADDSYYGLDYWGQGTQVTVSS | low polyreactivity
38 | QVHLVESGGGLVQAGGSLRLSCAASGITFKRYAMGWYRQAPGKERELVAAISDIGGRTYYADSVKGRFTISRDNAKNTVYLQMNSLKPEDTAGYFCAADYYSPVDWYYYWGQGTQVTVSS | high polyreactivity
39 | QVHLVESGGGLVQAGGSLRLSCAASGITFNSNAMGWYRQAPGKERELVAAITVSGGNTYYADSVKGRFTISRDNAKNTVYLQMYSLKPEDTAVYYCNTASDVSWYVHYYYWRQGTQVTVSS | low polyreactivity
40 | QVHLVESGGGLVQAGGSLRLSCAASGITFRTYALGGYRQAPGKERELVAAITRGDSTYYADSVKGRFTISRDNAKNTVYLQMNILKPEDTAVYYCNTETTDFRRYEYWGQGTQVTVSS | low polyreactivity
